# Assay results from patent US20160326540A1, “Methods and Compositions Employing a Sulfonylurea-Dependent Stabilization Domain” (PIONEER HI-BRED INTERNATIONAL, INC., priority 2013, published 2016).
# Key:
# E. coli KM3 = format: cell-based; settings: for Control 84 hr (colony color intensity): M9 assay plates, no inducer (background activity), 84 hr at 30° C., ImageJ colony color intensity
# Experimental: Library L6 was assembled, rescued, ligated into pVER7314, transformed into E. coli KM3 and plated out onto LB carbenicillin/kanamycin, and carbenicillin only control media as before. Library plates were then picked into 42 384-well microtiter plates (˜16,000 clones) containing 60 μl LB carbenicillin (Cb) broth per well. After overnight growth at 37° C. the cultures were stamped onto M9 assay plates containing no inducer, 0.2 ppm, and 2.0 ppm chlorsulfuron as test inducer. Following incubation at 30° C. for ˜48 hrs, putative hits responding to chlorsulfuron treatment as determined by increased blue colony color were re-arrayed into six 96-well microtiter plates and used to stamp a fresh set of M9 assay plates to confirm the above results. For a more detailed analysis of the relative induction by chlorsulfuron, digital photographs were taken of the plates after various time points of incubation at 30° C. and colony color intensity measured using the digital image analysis freeware program ImageJ (Rasband, US National Institutes of Health, Bethesda, Md., USA, rsb.info.nih.gov/ij/, 1997-2007). […] From this analysis sequence-activity relationships were derived. […] Briefly, C at position 100, and Q at positions 108 and 109 strongly correlated with activation, while R at position 138, L at position 170, and A or G at position 173 were highly preferred in clones with the lowest background activity. […] This information will aid in the design of further libraries to improve responsiveness to chlorsulfuron. […]
# Library CsL3 construction and screening: Based on the IVM results the top performing residue substitutions were incorporated into library CsL3 (Table 14). The library was assembled with the oligonucleotides shown below in Table 19. The first and last primers in each set were used as rescue primers. To enable purification of hit proteins, a 6×His-tag between was added to the C-terminus of the ligand binding domain of each clone during the assembly and rescue process. The library was then inserted into pVER7334 SacI/AscI, transformed into E. coli assay strain Km3 and selected on LB+40 ug/ml Kanamycin and 50 ug/ml Carbenicillin. […] Colony color was then assessed at 24 and 96 hrs of incubation at 37° C. […] Also, while the C86M substitution was less frequent in the overall hit population it occurred in all top 26 clones.
# Creating novel diversity through random mutagenesis.
# Construction and screening of library CsL4.2.
# [1] = system: β-gal background activity; assay: First and second round library screening (L1, L2) for induction by sulfonylurea ligands; format: cell-based; settings: initial screen, library L1, data not shown
# From the text: The original library was designed to thifensulfuron, but once induction activity was established with other SU compounds having potentially better soil and in planta stability properties than the original ligand, the evolution process was re-directed towards these alternative ligands. Of particular interest were herbicides metsulfuron, sulfometuron, ethametsulfuron and chlorsulfuron. For this objective, parental clones L1-9, -22, -29 and -44 were chosen for further shuffling. Clone L1-9 has strong activity on both ethametsulfuron and chlorsulfuron; clone L1-22 has strong sulfometuron activity; clone L1-29 has moderate metsulfuron activity; and clone L1-44 has moderate activity on metsulfuron, ethametsulfuron and chlorsulfuron. (Data not shown.). No clones found in the initial screen were exceptionally reactive to metsulfuron. These four clones were also chosen due to their relatively strong repressor activity, showing low β-gal background activity without inducer. Strong repressor activity is important for establishing a system which is both highly sensitive to the presence of inducer, and tightly off in the absence of inducer.
# Based on the sequence information from parental clones L1-9, -22, -29 and -44, two second round libraries were designed, constructed and screened. The first library, L2, consisted of a ‘family’ shuffle whereby the amino acid diversity between the selected parental clones was varied using synthetic assembly of oligonucleotides to find clones improved in responsiveness to any of the four new target ligands.
# The L2 oligonucleotides were assembled, cloned and screened as per the protocol described for library L1 except that each ligand was tested at 2 ppm to increase the stringency of the assay, which is a 10-fold reduction from 1st round library screening concentration.
Molecule,Control 84 hr (colony color intensity) (E. coli KM3),further results
"L6-1B03 (protein, Sulfonylurea responsive repressor) MGSRLDKSKVINSALELLNEVGIEGLTTRKLAQKLGVEQPTLYWHVKNKRALLDALAIEMMDRHATHICPLEGESWQDFLRNNAKSMRCALLSHRDGAKVCLGTRWTEQQYEAAENMLAFLCQQGFSLENALYAVSAVRVFTLGCVLFDQESQVAKEERETPTTASMPPLLRQAWELKDHQGAEPAFLFGLELIICGLEKQLKCESGS",6.6,–
"L6-5H06 (protein, Sulfonylurea responsive repressor) MGSRLDKSKVINSALELLNEVGIEGLTTRKLAQKLGVEQPTLYWHVKNKRALLDALAIEMMDRHQTHICPLEGESWQDFLRNNAKSMRCALLSHRDGAKVCLGTRWTEKQYETAENMLAFLCQQGFSLENALYAVSAVRVFTLGCVLFDQELQVAKEERETPTTASMPPLVRQAWELKDHQGAEPAFLFGLELIICGLEKQLKCESGS",5.1,–
"L6-6F07 (protein, Sulfonylurea responsive repressor) MGSRLDKSKVINSALELLNEVGIEGLTTRKLAQKLGVEQPTLYWHVKNKRALLDALAIEMMDRHATHLCPLEGESWQDFLRNTAKSMRCALLSHRDGAKVCLGTRWTEQQYESAENMLAFLCQQGFSLENALYAMSAVRVFTLGCVLFDQESQVAKEERETPTTASMPPLLRQAWELKDHQGAEPAFLFGLELIICGLEKQLKCESGS",5.1,–
"L6-3H02 (protein, Sulfonylurea responsive repressor) MGSRLDKSKVINSALELLNEVGIEGLTTRKLAQKLGVEQPTLYWHVKNKRALLDALAIEMMDRHATHYCPLEGESWQDFLRNTAKSMRCALLSHRDGAKVCLGTRWTEQHYESAENMLAFLCQQGFSLENALYAVSAVRVFTLGCVLFDQESQVAKEERETPTTASMPPLVRQAWELKVHQGAEPAFLFGLELIICGLEKQLKCESGS",5.6,–
"L6-5F05 (protein, Sulfonylurea responsive repressor) MGSRLDKSKVINSALELLNEVGIEGLTTRKLAQKLGVEQPTLYWHVKNKRALLDALAIEMMDRHATHICPLEGESWQDFLRNNAKSMRCALLSHRDGAKVCLGTRWTEQQYEAAENQLAFLCQQGFSLENALYAVSAVRVFTLGCVLFDQELQVAKEERETPTTASMPPLLRQAWELKDHQGAEPAFLFGLELIICGLEKQLKCESGS",5.4,–
"L6-5G06 (protein, Sulfonylurea responsive repressor) MGSRLDKSKVINSALELLNEVGIEGLTTRKLAQKLGVEQPTLYWHVKNKRALLDALAIEMMDRHQTHYCPLEGESWQDFLRNNAKSMRCALLSHRDGAKVCLGTRWTEQQYETAENQLAFLCQQGFSLENALYAVSAVRVFTLGCVLFDQELQVAKEERETPTTASMPPLLRQGWELKDHQGAEPAFLFGLELIICGLEKQLKCESGS",7.0,–
"L6-5H12 (protein, Sulfonylurea responsive repressor) MGSRLDKSKVINSALELLNEVGIEGLTTRKLAQKLGVEQPTLYWHVKNKRALLDALAIEMMDRHATHYCPLEGESWQDFLRNNAKSMRCALLSHRDGAKVCLGTRWTEKQYETAENQLAFLCQQGFSLENALYAMSAVRVFTLGCVLFDQELQVAKEERETPTTASMPPLVRQAWELKDHQGAEPAFLFGLELIICGLEKQLKCESGS",5.7,–
"L6-4D10: library L6 clone, parent of the L8 hits (protein, Sulfonylurea responsive repressor, library L6 clone, parent of the L8 hits) MGSRLDKSKVINSALELLNEVGIEGLTTRKLAQKLGVEQPTLYWHVKNKRALLDALAIEMMDRHQTHYCPLEGESWQDFLRNNAKSMRCALLSHRDGAKVCLGTRWTEKQYESAENMLAFLCQQGFSLENALYAVSAVRVFTLGCVLFDQESQVAKEERETPTTASMPPLLRQAWELKDHQGAEPAFLFGLELIICGLEKQLKCESGS",5.0,–
"L6-2C09 (protein, Sulfonylurea responsive repressor) MGSRLDKSKVINSALELLNEVGIEGLTTRKLAQKLGVEQPTLYWHVKNKRALLDALAIEMMDRHQTHYCPLEGESWQDFLRNTAKSMRCALLSHRDGAKVCLGTRWTEQLYETAENQLAFLCQQGFSLENALYAMSAVRVFTLGCVLFDQELQVAKEERETPTTASMPPLLRQAWELKDHQGAEPAFLFGLELIICGLEKQLKCESGS",5.2,–
"L6-2D07 (protein, Sulfonylurea responsive repressor) MGSRLDKSKVINSALELLNEVGIEGLTTRKLAQKLGVEQPTLYWHVKNKRALLDALAIEMMDRHQTHFCPLEGESWQDFLRNTAKSMRCALLSHRDGAKVCLGTRWTEQQYETAENMLAFLCQQGFSLENALYAMSAVRVFTLGCVLFDQESQVAKEERETPTTASMPPLVRQAWELKDHQGAEPAFLFGLELIICGLEKQLKCESGS",5.8,–
"L8-3F01: library L8 chlorsulfuron repressor hit, parent for saturation mutagenesis and CsL3 (protein, Sulfonylurea responsive repressor, library L8 chlorsulfuron repressor hit, parent for saturation mutagenesis and CsL3) MARLDKSKVINSALELLNEVGIEGLTTRKLAQKLGVEQPTLYWHVKNKRALLDALAIEMMDRHQTHYLPLEGESWQDFLRNNAKSCRRALLSHRDGAKVCLGTRWTEQQYETAENMLAFLTQQGFSLENALYAVSAVRVFTLGAVLFDQESQVAKEERETPTTDSMPPLLRQAWELKDHQGAEPAFLFGLELIIAGLEKQLKRESGS",–,"F.IND = fold induction (IND/REP) (Colony Assay Results) (E. coli KM3; CsL3 hits, 20 ppb Cs vs no inducer): 2.5"
"L1-29: first round library L1 sulfonylurea repressor parental clone (protein, Sulfonylurea responsive repressor, first round library L1 sulfonylurea repressor parental clone) MGSRLDKSKVINSALELLNEVGIEGLTTRKLAQKLGVEQPTLYWHVKNKRALLDALAIEMMDRHQTHFCPLEGESWQDFLRNTAKSMRCALLSHRDGAKVWLGTRWTEKQYETPENMLAFLCQQGFSLENALYAWSAVCNFTLGCVLSDQERQVAKEERETPTTDSMPPLLRQAWELSDHQGAEPAFLFGLELIICGLEKQLKCESGS",–,metsulfuron activity [1]: moderate
"L1-22: first round library L1 sulfonylurea repressor parental clone (protein, Sulfonylurea responsive repressor, first round library L1 sulfonylurea repressor parental clone) MGSRLDKSKVINSALELLNEVGIEGLTTRKLAQKLGVEQPTLYWHVKNKRALLDALAIEMMDRHHTHFCPLEGESWQDFLRNTAKSYRCALLSHRDGAKVCLGTAITEKQYETKENNLAFLCQQGFSLENALYARQAVRVFTLGCVLFDQEMQVAKEERETPTTDSMPPLLRQASELLDHQGAEPAFLFGLELIICGLEKQLKSESGS",–,sulfometuron activity [1]: strong
"L1-44: first round library L1 sulfonylurea repressor parental clone (protein, Sulfonylurea responsive repressor, first round library L1 sulfonylurea repressor parental clone) MGSRLDKSKVINSALELLNEVGIEGLTTRKLAQKLGVEQPTLYWHVKNKRALLDALAIEMLDRHATHFCPLEGESWQDFLRNNAKSYRCALLSHRDGAKVYLGTAVTEKQYETAENQLAFLCQQGFSLENALYAVKAVAGFTLGCVLWDQESQVAKEERETPTTASMPPLLRQAVELADHQGAEPAFLFGLELIICGLEKQLKCESGS",–,activity on chlorsulfuron [1]: moderate; activity on ethametsulfuron [1]: moderate; metsulfuron activity [1]: moderate
